According to publication PMC9077843:

Legend:
[1] = Western blot, HEK293T; settings: glycan lost; control: B3GNT5-WT-Flag
[2] = Western blot, MDA-MB231 and BT549, B3GNT5-WT-mcherry; settings: glycan lost; control: untreated

Protein	expression_or_secretion [1]	expression_or_secretion [2]
B3GNT5 (β1,3-N-acetylglucosaminyltransferase V): 4NQ (protein) parent chain: MRMLVSGRRVKKWQLIIQLFATCFLASLMFFWEPIDNHIVSHMKSYSYRYLINSYDFVNDTLSLKHTSAGPRYQYLINHKEKCQAQDVLLLLFVKTAPENYDRRSGIRRTWGNENYVRSQLNANIKTLFALGTPNPLEGEELQRKLAWEDQRYNDIIQQDFVDSFYNLTLKLLMQFSWANTYCPHAKFLMTADDDIFIHMPNLIEYLQSLEQIGVQDFWIGRVHRGAPPIRDKSSKYYVSYEMYQWPAYPDYTAGAAYVISGDVAAKVYEASQTLNSSLYIDDVFMGLCANKIGIVPQDHVFFSGEGKTPYHPCIYEKMMTSHGHLEDLQDLWKNATDPKVKTISKGFFGQIYCRLMKIILLCKISYVDTYPCRAAFI	decreases	–
B3GNT5 (β1,3-N-acetylglucosaminyltransferase V): tunicamycin (TM, 2.5 μg/mL, 24 h) (protein) parent chain: MRMLVSGRRVKKWQLIIQLFATCFLASLMFFWEPIDNHIVSHMKSYSYRYLINSYDFVNDTLSLKHTSAGPRYQYLINHKEKCQAQDVLLLLFVKTAPENYDRRSGIRRTWGNENYVRSQLNANIKTLFALGTPNPLEGEELQRKLAWEDQRYNDIIQQDFVDSFYNLTLKLLMQFSWANTYCPHAKFLMTADDDIFIHMPNLIEYLQSLEQIGVQDFWIGRVHRGAPPIRDKSSKYYVSYEMYQWPAYPDYTAGAAYVISGDVAAKVYEASQTLNSSLYIDDVFMGLCANKIGIVPQDHVFFSGEGKTPYHPCIYEKMMTSHGHLEDLQDLWKNATDPKVKTISKGFFGQIYCRLMKIILLCKISYVDTYPCRAAFI	–	decreases
